# Experimental data reported in IntAct's records for PubMed 16959570.
# B1: FK506-binding protein 4 (Saccharomyces cerevisiae), Q06205 (parent)
# chain: MSDMLPLATYSLNVEPYSPTPALNFKIPVTIRITMAAIDPEPFDDDKKPSTLRIIKRNPELTRGEYYNQDNNDGLEEDESESEQEADVPKRSVKSKKGKAVEQSESEDSEDENEIDDEFEECVLLTLSPKGQYQQALDITIAPEEDVQFVVTGSYTISLTGNYVKHPFDNSSDSDEDEEDYYSDEESSNGEEEEEEEEEDDEELSSGDDDLDDLVDASDIESRLDELVKKDEKKKNNKKDSKRKHEEDEEESAKPAEKKQTTKKDKKAEKVKDSEESKPKPKTKLLEGGIIIEDRVTGKGPHAKKGTRVGMRYVGKLKNGKVFDKNTKGKPFVFKLGQGEVIKGWDIGVAGMAVGGERRIVIPAPYAYGKQALPGIPANSELTFDVKLVSMK
# Variants of: B1
# Settings: with h3_yeast HHT1, P61830
row,Variant,effect of a mutation on the interaction
1,F323A,disrupting interaction
